Stoichiometry N data for one substance are collected here from paper PMC5773207.

Where “and” joins values, the source holds several entries; their conditions need not be identical. Identical values can stand only once.

In the experiment the target is Nogo-B receptor construct NgBR(79–293) (human) (UniProt Q96E22). The experiment can be described thus: SEC; size exclusion (Superdex 200 10/300 GL) in-line with synchrotron SAXS; 20 mg/mL NgBR(79-293), 20 mM HEPES pH 7.5, 150 mM NaCl, 5% glycerol, 1 mM TCEP, 25°C. Background: SEC sorts molecules by how far they enter the pores of the column.

By stoichiometry N is commonly meant the number of molecules, sites or subunits per partner or assembly.

As for “Nogo-B receptor construct NgBR(79–293) (from UniProt Q96E22 79-293) (domain or fragment)”, the stoichiometry N was 2 and 4.
